Our source for the protein stability index values is the supplement of paper PMC10567573.

To fix the notation:
B1: WEE1 (parent)
chain: FLGSSFSPVRCGGPGDASPRGCGA
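Further: lentivirally expressed fusions sorted by FACS into six bins by GFP to DsRed ratio, PSI derived from sequencing read proportions per bin multiplied by bin number.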

The variants in the series derive from B1. Put plainly: protein stability index of a GFP-peptide fusion (GPS, HEK-293T) (PSI 1-6); higher = more stable. The conditions noted are these: c terminus: a fixed tail appended.
On to FLGSSFSPVRCGGPGDDSPRGCGA, for which the protein stability index amounted to 2.34. Under FLGSSFSPVRCGGPGDCSPRGCGA stands 2.06.

Consider FLGSSFSPVRCGGPGHASPRGCGA, for which the protein stability index worked out at 2.27. Under FLGSSFSPVRCGGPGYASPRGCGA stands 1.23; under FLGSSFSPVRCGGPGVASPRGCGA, 1.91. FLGSSFSPVRCGGPGRASPRGCGA: the protein stability index was 2.06. Under FLGSSFSPVRCGGPGAASPRGCGA stands 1.26; under FLGSSFSPVRCGGPGMASPRGCGA, 2.45.

Turning to FLGSSFSPVRCGGPGTASPRGCGA, the protein stability index came out at 1.57. The result for FLGSSFSPVRCGGPGNASPRGCGA reads 1.39; that for FLGSSFSPVRCGGPGSASPRGCGA, 2.09.

Turning to FLGSSFSPVRCGGPGFASPRGCGA, the protein stability index was 2.35. Under FLGSSFSPVRCGGPGPASPRGCGA stands 1.73; under FLGSSFSPVRCGGPGIASPRGCGA, 1.61. Under FLGSSFSPVRCGGPGLASPRGCGA stands 1.88; under FLGSSFSPVRCGGPGKASPRGCGA, 1.81. The result for FLGSSFSPVRCGGPGCASPRGCGA reads 2.57. For the variant FLGSSFSPVRCGGPGQASPRGCGA, the protein stability index was 1.86. The result for FLGSSFSPVRCGGPGWASPRGCGA reads 1.74.

FLGSSFSPVRCGGPGEASPRGCGA: the protein stability index worked out at 1.93. Under FLGSSFSPVRCGGPGGASPRGCGA stands 1.99. Under FLGSSFSPVRCGGPWDASPRGCGA stands 3.02.

On to FLGSSFSPVRCGGPQDASPRGCGA, for which the protein stability index turned out to be 1.45. The result for FLGSSFSPVRCGGPNDASPRGCGA reads 1.77; that for FLGSSFSPVRCGGPADASPRGCGA, 2.45; that for FLGSSFSPVRCGGPMDASPRGCGA, 1.88. Under FLGSSFSPVRCGGPPDASPRGCGA stands 1.75.

In the case of FLGSSFSPVRCGGPKDASPRGCGA, the protein stability index worked out at 1.93. The result for FLGSSFSPVRCGGPHDASPRGCGA reads 1.76. In the case of FLGSSFSPVRCGGPRDASPRGCGA, the protein stability index was found to be 1.56. Under FLGSSFSPVRCGGPIDASPRGCGA stands 1.82; under FLGSSFSPVRCGGPFDASPRGCGA, 2.6; under FLGSSFSPVRCGGPSDASPRGCGA, 2.02.

With FLGSSFSPVRCGGPTDASPRGCGA, the protein stability index came to 2.25. For FLGSSFSPVRCGGPCDASPRGCGA, the protein stability index amounted to 1.25. Under FLGSSFSPVRCGGPEDASPRGCGA stands 1.59; under FLGSSFSPVRCGGPLDASPRGCGA, 2.68; under FLGSSFSPVRCGGPVDASPRGCGA, 1.65. Turning to FLGSSFSPVRCGGPYDASPRGCGA, the protein stability index is 2.37. The result for FLGSSFSPVRCGGPDDASPRGCGA reads 2.06. The result for FLGSSFSPVRCYGPGDASPRGCGA reads 2.65; that for FLGSSFSPVRCFGPGDASPRGCGA, 1.43. Under FLGSSFSPVRCSGPGDASPRGCGA stands 2.

With FLGSSFSPVRCRGPGDASPRGCGA, the protein stability index was 2.1. Take FLGSSFSPVRCCGPGDASPRGCGA: the protein stability index was 2.04.

Consider FLGSSFSPVRCTGPGDASPRGCGA, for which the protein stability index was 1.63. Under FLGSSFSPVRCEGPGDASPRGCGA stands 2.03.

As to FLGSSFSPVRCKGPGDASPRGCGA, the protein stability index is 2.31. Take FLGSSFSPVRCNGPGDASPRGCGA: the protein stability index worked out at 2.56. Under FLGSSFSPVRCPGPGDASPRGCGA stands 2.38; under FLGSSFSPVRCDGPGDASPRGCGA, 1.85. As for FLGSSFSPVRCIGPGDASPRGCGA, the protein stability index was determined as 1.3. Under FLGSSFSPVRCAGPGDASPRGCGA stands 1.78; under FLGSSFSPVRCMGPGDASPRGCGA, 1.83. With FLGSSFSPVRCLGPGDASPRGCGA, the protein stability index was 2.44. The result for FLGSSFSPVRCWGPGDASPRGCGA reads 1.9; that for FLGSSFSPVRCHGPGDASPRGCGA, 3.11; that for FLGSSFSPVRCVGPGDASPRGCGA, 1.43. The result for FLGSSFSPVRCQGPGDASPRGCGA reads 2.07; that for FLGSSFSPGRCGGPGDASPRGCGA, 2.25; that for FLGSSFSPKRCGGPGDASPRGCGA, 1.93.

Take FLGSSFSPDRCGGPGDASPRGCGA: the protein stability index was 2.58.

Turning to FLGSSFSPHRCGGPGDASPRGCGA, the protein stability index was 2.22. Under FLGSSFSPTRCGGPGDASPRGCGA stands 1.88; under FLGSSFSPYRCGGPGDASPRGCGA, 1.25; under FLGSSFSPERCGGPGDASPRGCGA, 2.79.

Take FLGSSFSPNRCGGPGDASPRGCGA: the protein stability index was found to be 2.51. For the variant FLGSSFSPRRCGGPGDASPRGCGA, the protein stability index stood at 2.39. For the variant FLGSSFSPPRCGGPGDASPRGCGA, the protein stability index amounted to 2.58.

For FLGSSFSPQRCGGPGDASPRGCGA, the protein stability index turned out to be 1.76. The result for FLGSSFSPMRCGGPGDASPRGCGA reads 2.69; that for FLGSSFSPIRCGGPGDASPRGCGA, 1.8; that for FLGSSFSPCRCGGPGDASPRGCGA, 3.15. Consider FLGSSFSPLRCGGPGDASPRGCGA, for which the protein stability index turned out to be 1.1. The result for FLGSSFSPSRCGGPGDASPRGCGA reads 1.88; that for FLGSSFSPWRCGGPGDASPRGCGA, 2.19. The result for FLGSSFSPARCGGPGDASPRGCGA reads 2.11.

Turning to FLGSSFSPVRCGWPGDASPRGCGA, the protein stability index worked out at 1.56. The result for FLGSSFSPVRCGKPGDASPRGCGA reads 2.29. The result for FLGSSFSPVRCGEPGDASPRGCGA reads 1.52; that for FLGSSFSPVRCGSPGDASPRGCGA, 2.29. Under FLGSSFSPVRCGMPGDASPRGCGA stands 1.58; under FLGSSFSPVRCGAPGDASPRGCGA, 1.94.

Turning to FLGSSFSPVRCGLPGDASPRGCGA, the protein stability index was determined as 2.58. Under FLGSSFSPVRCGPPGDASPRGCGA stands 2.12; under FLGSSFSPVRCGFPGDASPRGCGA, 1.51; under FLGSSFSPVRCGDPGDASPRGCGA, 1.57. With FLGSSFSPVRCGRPGDASPRGCGA, the protein stability index stood at 1.87. Under FLGSSFSPVRCGNPGDASPRGCGA stands 2.38; under FLGSSFSPVRCGTPGDASPRGCGA, 1.55; under FLGSSFSPVRCGYPGDASPRGCGA, 1.63. Under FLGSSFSPVRCGQPGDASPRGCGA stands 2.98; under FLGSSFSPVRCGCPGDASPRGCGA, 2.58; under FLGSSFSPVRCGIPGDASPRGCGA, 2.43.
